Test results taken from US20210363269A1 (ALX ONCOLOGY, published 2021).
Changes are numbered by the printed parent chain.

T1: cynomolgus SIRP-α (cynomolgus monkey, UniProt Q5TFQ8 30-148 (human entry), limits assumed)
T1 construct: also called cyno1
T1 chain: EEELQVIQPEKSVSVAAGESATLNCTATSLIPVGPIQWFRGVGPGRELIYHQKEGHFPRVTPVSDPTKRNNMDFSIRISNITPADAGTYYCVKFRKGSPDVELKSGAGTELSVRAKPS

T2: BALBc mouse SIRP-α (mouse (BALB/c strain))
T2 chain: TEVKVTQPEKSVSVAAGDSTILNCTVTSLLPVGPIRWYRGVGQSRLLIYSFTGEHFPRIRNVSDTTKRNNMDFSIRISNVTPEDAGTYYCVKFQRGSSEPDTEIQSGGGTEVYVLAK

T3: C57BL/6 mouse SIRP-α D1 domain (mouse (C57BL/6 strain), UniProt P97797 32-148)
T3 sequence: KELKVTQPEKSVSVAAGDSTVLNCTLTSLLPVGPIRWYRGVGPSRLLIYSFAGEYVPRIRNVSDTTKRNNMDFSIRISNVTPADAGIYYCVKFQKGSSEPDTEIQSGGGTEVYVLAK

T4: cynomolgus SIRP-α D1 domain (cyno1) (cynomolgus monkey, UniProt Q5TFQ8 30-148 (human entry), limits assumed)
T4 chain: T1 chain

T5: BL6 mouse SIRP-α (mouse (C57BL/6 strain), UniProt P97797 32-148)
T5 construct: also called C57BL/6
T5 sequence: T3 sequence

T6: NOD mouse SIRP-α (mouse (NOD strain))
T6 chain: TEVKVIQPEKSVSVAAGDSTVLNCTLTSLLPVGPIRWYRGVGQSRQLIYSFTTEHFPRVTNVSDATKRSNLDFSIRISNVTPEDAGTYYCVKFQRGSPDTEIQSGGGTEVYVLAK

B1: Hum1/AB21_HC_wt (antibody, V domains shown)
VH: DVQLVESGGGVVRPGESLRLSCAASGFTFSSNAMSWVRQAPGKGLEWLAGISAGGSDTYYPASVKGRFTISRDNSKNTLYLQMNTLTAEDTAVYYCARETWNHLFDYWGLGTLVTVSS
VL: SYELTQPPSVSVSPGQTARITCSGGSYSSYYYAWYQQKPGQAPVTLIYSDDKRPSNIPERFSGSSSGTTVTLTISGVQAEDEADYYCGGYDQSSYTNPFGGGTKLTVL
B2: Hum1/AB66_HC_wt (antibody, V domains shown)
VH: B1 VH with N32Y, P61I, A62D, S75P, T78S, N84S, T85S
VL: B1 VL
B3: Hum3/AB21_HC_wt (antibody, V domains shown)
VH: B1 VH
VL: SYELTQPPSVSVSPGQTARITCSGGDYYSTYYAWYQQKPGQAPVTVIHSDDKRPSDIPERFSGSSSGTTVTLTISGVQAEDEADYYCGGYDGRTYINTFGGGTKLTVL
B4: Hum1/AB25_HC_wt (antibody, V domains shown)
VH: DVQLVESGGGVVRPGESLRLSCEASGFTFSSNAMSWVRQAPGKGLEWVAGISSGSDTYYGDSVKGRLTISRDNSKNILYLQMNSLTAEDTAVYYCARETWNHLFDYWGLGTLVTVSS
VL: B1 VL
B5: Hum1/AB27_HC_wt (antibody, V domains shown)
VH: DVQLVESGGGVVRPGESLRLSCAVSGFRFSSYAMSWVRQAPGKGLEWVSGISSGGDTYYVDSVKGRFTISRDNSKNTLYLQVNSLTAEDTAIYYCARETWNHLFDYWGLGTLVTVSS
VL: B1 VL
B6: Hum3/AB25_HC_wt (antibody, V domains shown)
VH: B4 VH
VL: B3 VL
B7: Hum3/AB27_HC_wt (antibody, V domains shown)
VH: B5 VH
VL: B3 VL
B8: Hum3/AB66_HC_wt (antibody, V domains shown)
VH: B1 VH with N32Y, P61I, A62D, S75P, T78S, N84S, T85S
VL: B3 VL
B9: antibody 27 (antibody, V domains shown)
VH: B5 VH
VL: ALTQPASVSADLGETVKITCSGGDSSSHYYGWYQQKSPGSAPVTVIYSDDERPSDIPSRFSGSASGSTATLTITGVRVEDEAIYYCGAYDGSTYANTFGAGTTLTVL
notes: also called AB27; S27
B10: S218 (scFv, V domains shown)
VH: DVQLVESGGGVVRPGESLTLSCTASGFTFTSSTMNWVRQAPGEGLDWVSSISTSGVITYYADSVKGRATISRDNSKNTLYLRLFSLRADDTAIYYCATDTFDHWGPGTLVTVSS
VL: ALTQPASVSANPGETVKITCFGSSGNYGWFQQKSPGSAPVTVIHYNNKRPSDIPSRFSGSKSGSTGTLTITGVRAEDEAVYFCGAWETGSATFGAGTTLTVL
notes: scFv-Fc format (VL-linker-VH on human IgG1 Fc)
B11: antibody 136 variant, light chain Mut / heavy chain wt (antibody, V domains shown)
VH: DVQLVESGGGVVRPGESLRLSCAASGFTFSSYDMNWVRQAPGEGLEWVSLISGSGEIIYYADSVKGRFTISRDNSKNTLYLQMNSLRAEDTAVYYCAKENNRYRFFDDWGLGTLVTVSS
VL: EIVLTQSPGTLSLSPGERATLSCRASQSVYTYLAWYQQKPGQAPRLLIYGASSRATGIPDRFSGSGSGTEFTLTISSLQSEDFAVYYCQQYYDRPPLTFGGGTKVEIK
B12: antibody 136 variant, light chain Mut / heavy chain Mut (antibody, V domains shown)
VH: EVQLVESGGGVVQPGRSLRLSCAASGFTFSSYDVNWVRQAPGKGLEWVSLISGSGEIIYYADSVKGRFTISRDNSKNTLYLQMNSLRAEDTAVYYCAKENNRYRFFDDWGQGTLVTVSS
VL: B11 VL
B13: antibody 136 variant, light chain Mut_Q38E / heavy chain Mut (antibody, V domains shown)
VH: B12 VH
VL: B11 VL with Q38E
B14: antibody 136 variant, light chain Mut_S12T / heavy chain Mut (antibody, V domains shown)
VH: B12 VH
VL: B11 VL with S12T
B15: antibody 136 variant, light chain Mut_S22T / heavy chain Mut (antibody, V domains shown)
VH: B12 VH
VL: B11 VL with S22T

Target: T7, human SIRPγ isoform 1 (human, UniProt Q9P1W8 29-147)
T7 construct: also called Gamma; Human SIRPg
Assay: SPR
Method in brief: (§1)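 On a ProteOn XPR36 biosensor, purified antibodies were either amine-coupled to a GLC chip or captured on an NLC chip using biotinylated Protein A. The running buffer was PBS pH 7.4 with 0.01% Tween-20, at 25° C. SIRP analytes, at nominal concentrations fixed by A280 absorbance, were injected in one-shot kinetic mode. The rate constants are apparent values from a global simple Langmuir fit of double-referenced data, and KD equals kd/ka.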
T7 sequence (Q9P1W8 29-147 limits assumed): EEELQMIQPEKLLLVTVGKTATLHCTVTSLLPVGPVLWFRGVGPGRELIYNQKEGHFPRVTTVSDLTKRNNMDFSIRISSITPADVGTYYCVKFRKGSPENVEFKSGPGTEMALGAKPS

| Binder | koff [s⁻¹] |
| --- | --- |
| B1 | 0.000188 |
| B2 | 0.000136 |
| B3 | 0.00021 |
| B4 | 0.000203 |
| B5 | 0.000178 |
| B6 | 0.000169 |
| B7 | 0.000207 |
| B8 | 0.000135 |
| B9 | 0.000407 |

Target: T8, human SIRP-α v1 (human, UniProt P78324 31-149)
T8 construct: also called Human v1; Human V1
Assay: SPR
Method in brief: as §1

T8 sequence (P78324 31-149 limits assumed): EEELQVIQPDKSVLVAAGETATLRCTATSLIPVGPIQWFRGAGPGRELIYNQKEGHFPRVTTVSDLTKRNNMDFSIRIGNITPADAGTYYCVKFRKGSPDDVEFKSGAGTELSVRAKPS

| Binder | koff [s⁻¹] |
| --- | --- |
| B1 | 0.000193 |
| B2 | 0.000124 |
| B3 | 0.000137 |
| B4 | 0.000133 |
| B5 | 0.000192 |
| B6 | 5.94e-05 |
| B7 | 0.000216 |
| B8 | 0.000124 |
| B9 | 0.000315 |

Target: T1, cynomolgus SIRP-α
Assay: SPR
Method in brief: as §1

| Binder | koff [s⁻¹] |
| --- | --- |
| B1 | 0.000395 |
| B2 | 0.000303 |
| B3 | 0.000432 |
| B4 | 0.00033 |
| B5 | 0.000379 |
| B6 | 0.000375 |
| B7 | 0.000464 |
| B8 | 0.000306 |
| B9 | 0.000683 |

Target: T9, human SIRP-α v2 (human)
T9 construct: also called Human v2; Human V2
Assay: SPR
Method in brief: as §1

T9 sequence (chain, as listed by the source limits assumed): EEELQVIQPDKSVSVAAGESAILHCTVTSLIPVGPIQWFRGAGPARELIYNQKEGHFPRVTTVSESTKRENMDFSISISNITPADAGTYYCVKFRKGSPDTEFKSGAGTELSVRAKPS

| Binder | koff [s⁻¹] |
| --- | --- |
| B1 | 0.000303 |
| B2 | 0.000239 |
| B3 | 0.000438 |
| B4 | 0.000267 |
| B5 | 0.000292 |
| B6 | 0.000353 |
| B7 | 0.000396 |
| B8 | 0.000287 |
| B9 | 0.000579 |

Target: T2, BALBc mouse SIRP-α
Assay: SPR
Method in brief: as §1

| Binder | koff [s⁻¹] |
| --- | --- |
| B1 | 0.00291 |
| B2 | 0.00246 |
| B3 | 0.00231 |
| B4 | 0.00374 |
| B5 | 0.0037 |
| B6 | 0.000227 |
| B7 | 0.000202 |
| B8 | 0.00205 |
| B9 | 0.005 |

Target: T3, C57BL/6 mouse SIRP-α D1 domain
Assay: SPR
Method in brief: (§2)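 Dissociation rate constants (koff) were measured on a ProteOn XPR36 instrument by Langmuir model fitting. Antibody clones in scFv-Fc format were captured from pre-filtered culture media onto a GLC chip with about 4000 RU of amine-coupled anti-human IgG Fc. SIRP analytes ran in PBS pH 7.4 with 0.01% Tween-20 at 25° C, and the model used was 1:1, applied to data double-referenced against interspot and buffer-blank responses.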

| Binder | binding result |
| --- | --- |
| B10 | no binding (tested: Koff > 5 × 10^3 (legend)) |

Target: T10, human SIRP-α v1 D1 domain (human, UniProt P78324 31-149)
T10 construct: also called human v1
Assay: SPR, Langmuir fit
Method in brief: as §2

T10 sequence (P78324 31-149 limits assumed): as the sequence (P78324 31-149 limits assumed) above

| Binder | koff [s⁻¹] |
| --- | --- |
| B10 | 7.06e-05 |

Target: T4, cynomolgus SIRP-α D1 domain (cyno1)
Assay: SPR, Langmuir fit
Method in brief: as §2

| Binder | koff [s⁻¹] |
| --- | --- |
| B10 | 2.49e-05 |

Target: T11, human SIRP-α v2 D1 domain (human)
T11 construct: also called human v2
Assay: SPR, Langmuir fit
Method in brief: as §2

T11 sequence (chain, as listed by the source limits assumed): as the sequence (chain, as listed by the source limits assumed) above

| Binder | koff [s⁻¹] |
| --- | --- |
| B10 | 5.47e-05 |

Target: T12, human SIRPγ isoform 1 (human, UniProt Q9P1W8 29-147)
T12 construct: also called SIRPg; sirpg
Assay: SPR, Langmuir fit
Method in brief: as §2
T12 sequence (Q9P1W8 29-147 limits assumed): as the sequence (Q9P1W8 29-147 limits assumed) above

| Binder | koff [s⁻¹] |
| --- | --- |
| B10 | 2.12e-05 |

Target: T5, BL6 mouse SIRP-α
Assay: SPR, antibody on GLC chip
Method in brief: (§3)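 On a ProteOn XPR36 biosensor, Protein A-purified antibodies were amine-coupled to a GLC chip at about ~1000 RU after dilution to 80 nM in 10 mM sodium acetate pH 4.5. SIRP analytes at 100, 33, 11, 3.7, 1.2 and 0 nM were then injected one-shot in PBS pH 7.4 containing 0.01% Tween-20 at 25° C, with 90 s of association at 100 μL/min and 1200 s of dissociation. The dissociation constant (KD) was calculated as kd/ka from a global Langmuir fit of double-referenced data.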

| Binder | Kd [nM] |
| --- | --- |
| B11 | 32.6 |
| B12 | 31.7 |
| B13 | 33.1 |
| B14 | 16.3 |
| B15 | 13.3 |

Target: T7, human SIRPγ isoform 1
Assay: SPR, antibody on GLC chip
Method in brief: as §3

| Binder | Kd [nM] |
| --- | --- |
| B11 | 19.6 |
| B12 | 1.68 |
| B13 | 19.3 |
| B14 | 66.7 |
| B15 | 61.7 |

Target: T8, human SIRP-α v1
Assay: SPR, antibody on GLC chip
Method in brief: as §3

| Binder | Kd [nM] |
| --- | --- |
| B11 | 7.28 |
| B12 | 7.29 |
| B13 | 6.18 |
| B14 | 4.88 |
| B15 | 4.99 |

Target: T9, human SIRP-α v2
Assay: SPR, antibody on GLC chip
Method in brief: as §3

| Binder | Kd [nM] |
| --- | --- |
| B11 | 17.4 |
| B12 | 19.5 |
| B13 | 12.5 |
| B14 | 10.5 |
| B15 | 8.28 |

Target: T2, BALBc mouse SIRP-α
Assay: SPR, antibody on GLC chip
Method in brief: as §3

| Binder | Kd [nM] |
| --- | --- |
| B11 | 2.8 |
| B12 | 3.14 |
| B13 | 2.98 |
| B14 | 2.09 |
| B15 | 1.64 |

Target: T6, NOD mouse SIRP-α
Assay: SPR, antibody on GLC chip
Method in brief: as §3

| Binder | Kd [nM] |
| --- | --- |
| B11 | 4.12 |
| B12 | 5.21 |
| B13 | 5.98 |
| B14 | 2.85 |
| B15 | 2.44 |

Target: T8, human SIRP-α v1
Assay: SPR
Remark: another data set of the same source
Method in brief: as §1

| Binder | Kd [nM] |
| --- | --- |
| B9 | 0.0215 |
